From US20250269048A1 (BIVICTRIX, published 2025)

T1: human CD7 on cells (human, UniProt P09564 26-240)
T1 construct: whole, on cells; Target of the FACS and cell capture values and of the kill assays on CD7 single positive cells; also called CD7+ cells; Jurkat (CD33-/CD7+)
T1 sequence (looked up): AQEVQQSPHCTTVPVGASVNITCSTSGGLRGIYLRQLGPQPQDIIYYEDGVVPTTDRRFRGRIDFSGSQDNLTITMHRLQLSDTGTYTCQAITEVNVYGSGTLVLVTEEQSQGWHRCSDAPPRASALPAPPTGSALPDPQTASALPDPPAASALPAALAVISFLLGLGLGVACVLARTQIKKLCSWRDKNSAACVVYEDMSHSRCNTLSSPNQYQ

T2: human CD7 (human, UniProt P09564 26-180, limits assumed)
T2 construct: The construct is not described
T2 sequence (looked up): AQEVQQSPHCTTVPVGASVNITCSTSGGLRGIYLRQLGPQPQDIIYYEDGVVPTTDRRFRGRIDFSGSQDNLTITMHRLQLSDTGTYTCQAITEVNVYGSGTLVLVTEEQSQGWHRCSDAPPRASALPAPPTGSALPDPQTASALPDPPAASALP


Legend:
human CD7 on cells [1] = target: T1, human CD7 on cells; experiment: FACS; cells not named
human CD7 on cells [2] = target: T1, human CD7 on cells; experiment: FACS; reference 7-PP-1 WT
human CD7 [3] = target: T2, human CD7; experiment: SPR
human CD7 [4] = target: T2, human CD7; experiment: SPR; reference 7-AA-WT
human CD7 [5] = target: T2, human CD7; experiment: SPR; reference 7-PP-1 WT

Binder	FACS binding (human CD7 on cells [1])	FACS fold reduction compared to PP WT (human CD7 on cells [2]) [fold]	Kd (human CD7 [3]) [nM]	Fold Reduction in binding affinity compared to WT (Kd) (human CD7 [4]) [fold]	Fold Reduction in binding affinity compared to PP WT (Kd) (human CD7 [5]) [fold]
7-PP-4 (Fab, V domains shown) VH: QVQLQESGAELVKPGASVKLSCKASGYTFTSYWMHWVKQRPGQGLEWIGKINPSNGRTNYNEKFKSKATLTVDKSSSTAYMQLSSLTSEDSAVYYCARGGVTYDLYYYALDYWGQGTTVTVSS VL: DIELTQSPATLSVTPGDSVSLSCRASQSISNNLHWYQQKSHESPRLLIKSASQSISGIPSRFSGSGSGTDFTLSINSVETEDFGMYFCQQSNSWPYTFGGGTKLEIKR	1990	3740	–	–	–
CD7-PP-6 binding arm (Fab, V domains shown, Heavy chain Asp104Ala) VH: QVQLQESGAELVKPGASVKLSCKASGYTFTSYWMHWVKQRPGQGLEWIGKINPSNGRTNYNEKFKSKATLTVDKSSSTAYMQLSSLTSEDSAVYYCARGGVYYALYYYALDYWGQGTTVTVSS VL: DIELTQSPATLSVTPGDSVSLSCRASQSISNNLHWYQQKSHESPRLLIKSASQSISGIPSRFSGSGSGTDFTLSINSVETEDFGMYFCQQSNSWPYTFGGGTKLEIKR	9.76	18.3	45.2	17.2	12.7
7-PP-10 (Fab, V domains shown) VH: QVQLQESGAELVKPGASVKLSCKASGYTFTSYWMHWVKQRPGQGLEWIGKINPSNGRTNYNEKFKSKATLTVDKSSSTAYMQLSSLTSEDSAVYYCARGGVYYDGYYAALDYWGQGTTVTVSS VL: DIELTQSPATLSVTPGDSVSLSCRASQSISNNLHWYQQKSHESPRLLIKSASQSISGIPSRFSGSGSGTDFTLSINSVETEDFGMYFCQQSNSWPYTFGGGTKLEIKR	335	628	–	–	–
7-PP-5 (Fab, V domains shown) VH: QVQLQESGAELVKPGASVKLSCKASGYTFTSYWMHWVKQRPGQGLEWIGKINPSNGRTNYNEKFKSKATLTVDKSSSTAYMQLSSLTSEDSAVYYCARGGVYYDGYYYALDYWGQGTTVTVSS VL: DIELTQSPATLSVTPGDSVSLSCRASQSISNNLHWYQQKSHESPRLLIKSASQSISGIPSRFSGSGSGTDFTLSINSVETEDFGMYFCQQSNSWPYTFGGGTKLEIKR	268	503	–	–	–
CD7-PP-7 CD7 binding arm (Fab, V domains shown, Heavy chain Arg57Gly/Tyr108Ala) VH: QVQLQESGAELVKPGASVKLSCKASGYTFTSYWMHWVKQRPGQGLEWIGKINPSNGGTNYNEKFKSKATLTVDKSSSTAYMQLSSLTSEDSAVYYCARGGVYYDLYYAALDYWGQGTTVTVSS VL: DIELTQSPATLSVTPGDSVSLSCRASQSISNNLHWYQQKSHESPRLLIKSASQSISGIPSRFSGSGSGTDFTLSINSVETEDFGMYFCQQSNSWPYTFGGGTKLEIKR	267	502	541	206	152
7-PP-11 (Fab, V domains shown) VH: QVQLQESGAELVKPGASVKLSCKASGYTFTSYWMHWVKQRPGQGLEWIGKINPSNGRTNYNEKFKSKATLTVDKSSSTAYMQLSSLTSEDSAVYYCARGGVYYALYYAALDYWGQGTTVTVSS VL: DIELTQSPATLSVTPGDSVSLSCRASQSISNNLHWYQQKSHESPRLLIKSASQSISGIPSRFSGSGSGTDFTLSINSVETEDFGMYFCQQSNSWPYTFGGGTKLEIKR	55.9	105	246	93.7	69.1
CD7-PP-2 CD7 binding arm (Fab, V domains shown, Heavy chain Arg57Gly) VH: QVQLQESGAELVKPGASVKLSCKASGYTFTSYWMHWVKQRPGQGLEWIGKINPSNGGTNYNEKFKSKATLTVDKSSSTAYMQLSSLTSEDSAVYYCARGGVYYDLYYYALDYWGQGTTVTVSS VL: DIELTQSPATLSVTPGDSVSLSCRASQSISNNLHWYQQKSHESPRLLIKSASQSISGIPSRFSGSGSGTDFTLSINSVETEDFGMYFCQQSNSWPYTFGGGTKLEIKR	34.6	64.9	75.7	28.8	21.3
CD7-PP-8 CD7 binding arm (Fab, V domains shown) VH: QVQLQESGAELVKPGASVKLSCKASGYTFTSYWMHWVKQRPGQGLEWIGKINPSNGKTNYNEKFKSKATLTVDKSSSTAYMQLSSLTSEDSAVYYCARGGVYYDLYYAALDYWGQGTTVTVSS VL: DIELTQSPATLSVTPGDSVSLSCRASQSISNNLHWYQQKSHESPRLLIKSASQSISGIPSRFSGSGSGTDFTLSINSVETEDFGMYFCQQSNSWPYTFGGGTKLEIKR	96.8	182	229	87.2	64.3
7-PP-9 (Fab, V domains shown) VH: QVQLQESGAELVKPGASVKLSCKASGYTFTSYWMHWVKQRPGQGLEWIGKINPSNGRTNYNEKFKSKATLTVDKSSSTAYMQLSSLTSEDSAVYYCARGGVTYDLYYAALDYWGQGTTVTVSS VL: DIELTQSPATLSVTPGDSVSLSCRASQSISNNLHWYQQKSHESPRLLIKSASQSISGIPSRFSGSGSGTDFTLSINSVETEDFGMYFCQQSNSWPYTFGGGTKLEIKR	275	517	–	–	–
CD7-PP-3 CD7 binding arm (Fab, V domains shown, Heavy chain Arg57Lys) VH: QVQLQESGAELVKPGASVKLSCKASGYTFTSYWMHWVKQRPGQGLEWIGKINPSNGKTNYNEKFKSKATLTVDKSSSTAYMQLSSLTSEDSAVYYCARGGVYYDLYYYALDYWGQGTTVTVSS VL: DIELTQSPATLSVTPGDSVSLSCRASQSISNNLHWYQQKSHESPRLLIKSASQSISGIPSRFSGSGSGTDFTLSINSVETEDFGMYFCQQSNSWPYTFGGGTKLEIKR	13	24.5	32.5	12.4	9.13
CD7-PP-12 CD7 binding arm (Fab, V domains shown, Light chain Gln27Ala) VH: QVQLQESGAELVKPGASVKLSCKASGYTFTSYWMHWVKQRPGQGLEWIGKINPSNGRTNYNEKFKSKATLTVDKSSSTAYMQLSSLTSEDSAVYYCARGGVYYDLYYYALDYWGQGTTVTVSS VL: DIELTQSPATLSVTPGDSVSLSCRASASISNNLHWYQQKSHESPRLLIKSASQSISGIPSRFSGSGSGTDFTLSINSVETEDFGMYFCQQSNSWPYTFGGGTKLEIKR	0.002	0.004	5.46	2.08	1.53
